Laboratory results from patent publication US9274110B2, “Diagnosis method of active tuberculosis” (priority 2011, dated 2016).

Columns and labels:
[1] = Activity of rLipC or cutinase on p-nitrophenyl esters (release of p-NP at 410 nm); format: biochemical; settings: for Specific Activity, pNP-butyrate (C4): substrate pNP-butyrate (C4); for Specific Activity, pNP-butyrate (C4) / Specific Activity, pNP-caprate (C10) / Specific Activity, pNP-caprylate (C8) / Specific Activity, pNP-laurate (C12) / Specific Activity, pNP-myristate (C14) / Specific Activity, pNP-valerate (C5): 1 mM, Tris buffer pH 8.0, 300 mM NaCl, 4 mM NaTDC, 15 min; for Specific Activity, pNP-caprate (C10): substrate pNP-caprate (C10); for Specific Activity, pNP-caprylate (C8): substrate pNP-caprylate (C8); for Specific Activity, pNP-laurate (C12): substrate pNP-laurate (C12); for Specific Activity, pNP-myristate (C14): substrate pNP-myristate (C14); for Specific Activity, pNP-valerate (C5): substrate pNP-valerate (C5)
[2] = pH-stat, fluorescent and spectrophotometric assays for lipase or phospholipase activity on various lipids; format: biochemical
Excerpt: rLipC activity was also investigated using pH-stat, fluorescent and spectrophotometric assays for various lipids, as well as phospholipids, to detect lipase or phospholipase activity, respectively.

Molecule: Cutinase F. solani: cutinase from F. solani, comparison enzyme [reference compound]
- Specific Activity, pNP-butyrate (C4) [1]: 382 ± 22 U · mg^−1
- Specific Activity, pNP-caprate (C10) [1]: 9 ± 1 U · mg^−1
- Specific Activity, pNP-caprylate (C8) [1]: 14 ± 3 U · mg^−1
- Specific Activity, pNP-laurate (C12) [1]: 1 ± 0.4 U · mg^−1
- Specific Activity, pNP-myristate (C14) [1]: 1 ± 0.2 U · mg^−1
- Specific Activity, pNP-valerate (C5) [1]: 78 ± 0.5 U · mg^−1

B1: Rv0220: M. tuberculosis Lip family protein Rv0220 (LipC), recombinant; shown not to be a lipolytic enzyme (protein, UniProt P96402 1-403, looked up)
Esterase LipC: MNQRRAAGSTGVAYIRWLLRARPADYMLALSVAGGSLPVVGKHLKPLGGVTAIGVWGARHASDFLSATAKDLLTPGINEVRRRDRASTQEVSVAALRGIVSPDDLAVEWPAPERTPPVCGALRHRRYVHRRRVLYGDDPAQLLDVWRRKDMPTKPAPVLIFVPGGAWVHGSRAIQGYAVLSRLAAQGWVCLSIDYRVAPHHRWPRHILDVKTAIAWARANVDKFGGDRNFIAVAGCSAGGHLSALAGLTANDPQYQAELPEGSDTSVDAVVGIYGRYDWEDRSTPERARFVDFLERVVVQRTIDRHPEVFRDASPIQRVTRNAPPFLVIHGSRDCVIPVEQARSFVERLRAVSRSQVGYLELPGAGHGFDLLDGARTGPTAHAIALFLNQVHRSRAQFAKEVI
- Specific Activity, pNP-butyrate (C4) [1]: 133 × 10^−3 U · mg^−1
- Specific Activity, pNP-caprate (C10) [1]: 2 × 10^−3 U · mg^−1
- Specific Activity, pNP-caprylate (C8) [1]: 22 × 10^−3 U · mg^−1
- Specific Activity, pNP-laurate (C12) [1]: 0 U · mg^−1
- Specific Activity, pNP-myristate (C14) [1]: 0 U · mg^−1
- Specific Activity, pNP-valerate (C5) [1]: 111 × 10^−3 U · mg^−1
- Hydrolysis of esters function associated with a fatty acyl chain having more than 10 carbons ([1]; summary of Table 1): not able to hydrolyse
- Long-chain triglycerides (TG) hydrolysis ([2]; cloned and characterized protein, see example 1): no long-chain triglycerides (TG) hydrolysis was detected
- Activity on triglycerides, diglycerides or monoglycerides as substrate ([2]; pH-stat, fluorescent and spectrophotometric assays, whatever the carbon chain length): does not show any activity
